From IntAct's records for PubMed 18001824

Biological target: rnf8_human RNF8 (UniProt O76064)
Chain of UniProt O76064 (O76064 whole entry): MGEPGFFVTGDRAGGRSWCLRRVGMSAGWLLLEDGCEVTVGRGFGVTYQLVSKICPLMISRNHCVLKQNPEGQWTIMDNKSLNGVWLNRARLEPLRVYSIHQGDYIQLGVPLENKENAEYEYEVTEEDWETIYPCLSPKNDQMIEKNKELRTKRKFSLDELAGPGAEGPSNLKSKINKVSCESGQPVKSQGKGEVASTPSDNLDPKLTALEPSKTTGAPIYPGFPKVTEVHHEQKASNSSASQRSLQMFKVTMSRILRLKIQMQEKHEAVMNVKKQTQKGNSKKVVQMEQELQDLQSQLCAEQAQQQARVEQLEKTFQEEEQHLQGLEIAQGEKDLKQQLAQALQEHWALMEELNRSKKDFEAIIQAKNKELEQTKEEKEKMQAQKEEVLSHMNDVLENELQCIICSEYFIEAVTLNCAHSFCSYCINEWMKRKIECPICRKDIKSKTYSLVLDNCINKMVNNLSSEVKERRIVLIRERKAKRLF

## Mediator of DNA damage checkpoint protein 1 (Homo sapiens), Q14676 T699A;T719A;T752A
  effect of a mutation on the interaction: decreasing interaction
